Results published in patent WO2024019110A1 (dated 2024).

Experiments:
Test in all cases: BLI (Octet), biotinylated RBD on streptavidin biosensor, Fab in solution
[1] = target: Delta strain RBD, biotinylated (SARS-CoV-2 (Delta strain), UniProt P0DTC2 331-529)
[2] = target: Omicron strain (BA.1) RBD, biotinylated (SARS-CoV-2 (Omicron strain BA.1), UniProt P0DTC2 331-529)
[3] = target: Omicron strain (BA.2) RBD, biotinylated (SARS-CoV-2 (Omicron strain BA.2), UniProt P0DTC2 331-529)

Measured: Kd

B1: recombinant Fab protein of antibody No. 2 (Fab, V domains shown)
VH: EVQLVESGGGVVQPGRSLRLSCAASGFKFSKFAMHWVRQAPGKGPEWVAVISYDGNQYHSADSVKGRFTISRDNSFNTLYLQMNSLGPEDTAVYYCARDGPDTSGYYANIYFDFWGQGTLVTVSS
VL: QSVLTQPPSVSGAPGQRVTISCTGSSSNIGAGYDVHWYQQLPGRAPKLLIFDNNNRPSGVPDRFSGSKSGTSASLAITGLQTEDEAYYYCQSYDNSLILAVFGGGTKVTVL
≤ 100 nM: [1] | [2] | [3]

B2: recombinant Fab protein of antibody No. 5 (Fab, V domains shown)
VH: EVQLVESGGGLVQPGGSLRLSCAASGFTFYSYWMTWVRQAPGKGLEWVANIKHDESESHYVDSVRGRFTISRDNAKNSVYLQMKGLRAEDTAVYYCARDGGYNILTAYYHAPSYWGQGTLVTVSS
VL: QSALTQPASVSGSPGQSITISCTGTSSDVGGYNFVSWYRQYPGKAPQLMIYDVSRRPSGDSDRFSGSKSGNTASLTISGLQAEDEAEYHCSSYTGRSPYVVFGGGTKVTVL
≤ 100 nM: [1] | [2] | [3]

B3: recombinant Fab protein of antibody No. 6 (Fab, V domains shown)
VH: QVQLVQSGPEVKKPGTSVKVSCKASGFTFYYSAVQWVRQARGQRLEWLGWMAVGSGKANYAQKFQERLTLTRDMSTSTAYMELSSLRSEDTAVYYCAAPNCTGGSCYDGFNLWGQGTVVTVSS
VL: EIVLTQSPGTLSLSPGDRAILSCRASQTVNSNYLAWYQQKPGQAPRLLIYGTSSRATGIPDRFSGSGSGTDFTLTISRLEPEDFAVYYCQQYGSSPWLFGQGTKVEIK
≤ 100 nM: [1] | [2] | [3]

B4: recombinant Fab protein of antibody No. 7 (Fab, V domains shown)
VH: EVQLLESGGGLVQPGGSLRLSCAASGFTFSRYALSWVRQAPGKGLEWVSAISGAAITTYYADSVKGRFTISRDDSRNTLFMQMDSLRAEDTAVYYCAKGDYYDSSGYLAEYFPHWGQGTLVTVSS
VL: SYELTQPPSVSVSPGQTARITCFADALPKQHAYWYQQKAGQAPVLVIFKDTERPSGIPKRFSGSRSGATVTLTISGVQAEDEADYYCQSTDISGVLFGGGTKLTVL
≤ 100 nM: [1] | [2] | [3]
